Laboratory results as given in article PMC10825690 (2023).

Biological target: acetylated bovine serum albumin (AcBSA) (Bos taurus, UniProt P02769)
Experiment: microscale thermophoresis

Sequence of acetylated bovine serum albumin (AcBSA) (P02769 25-607): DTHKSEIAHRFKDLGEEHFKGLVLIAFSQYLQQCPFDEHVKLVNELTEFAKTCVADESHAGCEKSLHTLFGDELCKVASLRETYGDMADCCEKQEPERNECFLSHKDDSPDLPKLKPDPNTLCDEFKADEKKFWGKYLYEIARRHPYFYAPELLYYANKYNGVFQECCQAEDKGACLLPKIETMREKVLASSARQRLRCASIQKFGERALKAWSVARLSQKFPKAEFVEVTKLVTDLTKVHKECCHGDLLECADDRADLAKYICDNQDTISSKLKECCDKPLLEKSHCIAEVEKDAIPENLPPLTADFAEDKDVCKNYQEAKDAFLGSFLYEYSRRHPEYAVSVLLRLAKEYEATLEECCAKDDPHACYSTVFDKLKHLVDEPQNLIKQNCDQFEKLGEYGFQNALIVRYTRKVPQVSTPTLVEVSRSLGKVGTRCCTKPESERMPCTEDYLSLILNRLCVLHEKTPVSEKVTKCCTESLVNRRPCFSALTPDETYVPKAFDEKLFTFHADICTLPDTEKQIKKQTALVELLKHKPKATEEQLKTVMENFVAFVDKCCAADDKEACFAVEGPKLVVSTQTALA

B1: FIBCD1 236-461 (protein)
chain: ATGSRPRDCLDVLLSGQQDDGVYSVFPTHYPAGFQVYCDMRTDGGGWTVFQRREDGSVNFFRGWDAYRDGFGRLTGEHWLGLKRIHALTTQAAYELHVDLEDFENGTAYARYGSFGVGLFSVDPEEDGYPLTVADYSGTAGDSLLKHSGMRFTTKDRDSDHSENNCAAFYRGAWWYRNCHTSNLNGQYLRGAHASYADGVEWSSWTGWQYSLKFSEMKIRPVREDR
modifications: acetylated BSA, RED-NHS labeled FIBCD1, calcium
For B1, the Kd was 0.053 µM.
